Results on five molecules are retold here after patent US20250340649A1 (RUTGERS THE STATE UNIVERSITY OF NEW JERSEY, published 2025).

Experiment [1] addresses T1, HER2 protein (coated on ELISA plate) (human, UniProt P04626 23-652, limits assumed).
T1 construct: also called HER2 antigen
Nature of the experiment: ELISA, periplasmic extract on coated antigen, anti-HA-HRP. The source says: (§1) FIGS. 4A-4B. FIG. 4A) PBMCs were isolated using Ficoll-Paque method. Then, the RNAs were extracted, cDNA library was generated, genes amplified, and then cloned into pMECS-GG phagemids. The phagemids were used in phage display and the screened candidates were used to infect TG1 bacteria. Colonies were selected, grown, lysed, and the lysates removed. FIG. 4B) The lysates were then used in ELISA to screen for VHHs with the highest affinity to HER2 and with negligible binding to HER1, HER3, and HER4. Bovine serum albumin (BSA) and skim milk were used as controls.
(§2) The next day, each well was washed three times with washing buffer (DPBS+0.1% Tween 20) and then incubated with blocking buffer (2% skimmed milk) for 2 h at RT to block the free binding sites. Next, blocking buffer was replaced with 100 μL of periplasmic extract from above and incubated for 1 h at RT while shaking at 700 rpm. Each well was washed six times with washing buffer (DPBS+0.1% Tween 20) followed by addition of 100 μL HRP Anti-HA tag antibody (1:10000 dilution) and incubation for 1 h at RT while shaking at 700 rpm. Each well was washed again six times, followed by addition of 50 μL 1-Step™ Turbo TMB-ELISA substrate solution at incubation at RT for 15 min (without shaking and at dark). The reaction was stopped by adding 50 μL of stop solution ([…] sulfuric acid) and the plate was read at 450 nm using 630 nm as a reference (450/630 nm).

The target in another experiment is T2, HER1 (human, UniProt P00533 25-645).
T2 construct: The text says only 'HER1'; also called Recombinant human EGFR protein (Fc Chimera), Abcam ab155726; Fc part of the bought chimera not given
The experiment is described as above.
Description: as §1, §2

Another experiment has as its target T3, HER3 (human, UniProt P21860 20-643, limits assumed).
T3 construct: also called Recombinant Human ErbB 3 protein, Abcam ab196072
Described as above.
Description: as §1, §2

The next experiment deals with T4, Bovine serum albumin (bovine, UniProt P02769 25-607).
T4 construct: Control antigen; also called BSA
The description is as above.
Description: as §1, §2

The target of experiment [2] is T5, Biotinylated Human Her2/ErbB2 Protein, His, Avitag (AcroBiosystem HE2-H82E2) (human, UniProt P04626 23-652, biotinylated (Avitag)).
T5 construct: Bought protein; Loaded on streptavidin sensors for BLI; also called biotinylated HER2; HER2 antigen
In words: BLI (Octet), biotinylated HER2 on streptavidin sensor.

The target of experiment [3] is T6, HER2 on the surface of HER2+ cancer cells (BT474, SKOV-3) (human, UniProt P04626 23-1255).
T6 construct: whole, on cells; also called human epidermal growth factor receptor 2
Nature of the experiment: flow cytometry on BT-474 cells (HER2+), 100 nM binding sites. How it is done:
(§3) OVASC-1 is an ascites-derived epithelial ovarian cancer cells obtained from a patient with advanced metastatic disease (11, 12). The expressed VHHs were then incubated with HER2⁺ (BT474, JIMT-1, and SKOV-3) and HER2⁻ (MDA-MB-231) cancer cell lines. Approximately 10⁶ cells were counted and washed using DPBS-1% FBS. […] After washing, FITC-conjugated anti-Human IgG or anti-Histag antibody were added and incubated on ice for 60 min. Cells were washed three times and then analyzed using Beckman-Coulter Gallios flow cytometer at Rutgers Flow cytometry core facility.
(§4) In the next step, the ability of the VHHs to recognize and bind to HER2 on the surface of HER2+ cancer cells was evaluated. […] MDA-MB-231 and OVASC-1 (HER2⁻) cancer cells were used as negative controls.
(In general: Flow cytometry measures light scatter and fluorescence of single cells or particles in a stream.)

Experiment [4] deals with T6, HER2 on the surface of HER2+ cancer …. In words: flow cytometry on SKOV-3 cells (HER2+), 100 nM binding sites. The protocol: as §3, §4
The target in experiment [5] is T5, Biotinylated Human Her2/ErbB2 Protein, …. Nature of the experiment: BLI (Octet), biotinylated HER2 on streptavidin sensor, VHH 1.875-60 nM. A general note: In BLI a coated tip is dipped into the sample, and binding shifts an interference pattern.
Experiment [6] has as its target T6, HER2 on the surface of HER2+ cancer …. Nature of the experiment: flow cytometry, SKOV-3 (HER2+) cells, tenfold dilutions 0.001-1000 nM.
Experiment [7] addresses T5, Biotinylated Human Her2/ErbB2 Protein, …. In words: ELISA on HER2, tenfold dilutions 0-1000 nM; the HER2 form is not stated for this ELISA, Table 17 lists only the biotinylated HER2. A general note: ELISA stands for enzyme-linked immunosorbent assay.
For experiment [8] the target is unchanged. In words: BLI (Octet), biotinylated HER2 on streptavidin sensor, VHH 1.875-60 nM. This is another data set of the same source.
The next experiment has as its target T7, CD16b on neutrophils (human, UniProt O75015 17-200).
T7 construct: whole, on cells; also called neutrophils (CD16b+)
In words: flow cytometry on neutrophils (CD16b+). How it is done: For flow cytometry, haNK92 cells (CD16a+) and Neutrophils (CD16b⁺) were used. […] The human Neutrophil cells were purchased from HemaCare and cultured according to the manufacturer's protocol. First, both cell lines were harvested and washed once using DPBS supplemented with 2% FBS (2% DPBS-FBS). For each sample, 0.5×10⁶ cells were stained with antibody on ice for 60 min. In this experiment, 3G8 monoclonal antibody was used as a positive control. This antibody binds to both CD16a and CD16b. Following washing three times, the secondary antibody, anti-Histag antibody FITC labeled, was added. After washing, the samples were run on Cytoflex using FL2 channel.
In this experiment, NK92 cells (CD16a⁺), neutrophils (CD16b⁺), and B cells (CD32b⁺) were used as cell controls. 3G8 (anti-CD16a/b) and AT10 (anti-CD32a/b) mAbs were used as antibody controls.

The target in a further experiment is T8, biotinylated CD32b (UniProt P31994 46-217, biotinylated).
T8 construct: also called CD32b antigen
T8 sequence (looked up): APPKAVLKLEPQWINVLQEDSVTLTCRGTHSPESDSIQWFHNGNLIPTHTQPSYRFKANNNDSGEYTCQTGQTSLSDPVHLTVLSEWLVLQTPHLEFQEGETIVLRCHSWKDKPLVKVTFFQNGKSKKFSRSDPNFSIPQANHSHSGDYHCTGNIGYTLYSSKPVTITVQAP
In words: ELISA, biotinylated antigen on streptavidin plate. The protocol: The purified VHHs were subjected to functional analysis using ELISA and flow cytometry. For ELISA, 50 μL of biotinylated CD16a, CD16b-NA1, CD16b-NA2, and CD32b were added to the streptavidin-coated plate and incubated for 45 min at RT. Following washing, the 100 μL of 100 nM purified VHHs were added and incubated at RT for 1 h. Next, 100 μL anti-HA tag HRP conjugated secondary antibody was added. Finally, the substrate was added for color development, and the plate was read using OD of 450 nm.
CD32b and skim milk were also used as antigen controls. 3G8 and eBioCB16, which are anti-CD16a/b mAbs were used as antibody controls. […] CD32b is a receptor that is expressed on B cells and responsible for inhibiting B cell activation. One of the disadvantages of mAb-based therapies is the binding of their Fc region to CD32b leading to the diminished activity of humoral immunity.

The target in experiment [9] is T9, Biotinylated Human Fc gamma RIIIA/CD16a (F176) Protein, Avitag, His Tag (Acrobiosystems CDA-H82E8) (human, UniProt P08637 17-208, biotinylated (Avitag)).
T9 construct: also called biotinylated CD16a; CD16a antigen
In words: BLI (Octet), biotinylated CD16a on streptavidin sensor, VHH 1.875-60 nM. The protocol: (§5) An Octet® Streptavidin (SA) Biosensor was soaked for at least 10 min in DPBS supplemented with 0.1% Casein, biotinylated CD16a, CD16b-NA1, CD16b-NA2, and HER2 antigens were loaded onto the streptavidin (SA) biosensor until 1 nm shift was reached. Next, the sensor was dipped into the washing buffer (DPBS+0.05% Tween 20+0.1% Casein) for 2 min to reach the baseline. […] Then, in the dissociation step, sensors were dipped into the washing buffer for 5 min to acquire data (Table 5). The data were then analyzed using Octet Data Analysis HT 11.1 software. The sensorgrams were subtracted from the reference and fitted into 1:1 binding model for data analysis. Finally, the affinity and kinetics were analyzed using “Association and Dissociation”.

The target in experiment [10] is T10, Biotinylated Human Fc gamma RIIIB/CD16b (NA1) Protein, His, Avitag (Acrobiosystems CDB-H82E4) (human, UniProt O75015 17-200, biotinylated (Avitag)).
T10 construct: NA1 allele; also called CD16b-NAI
In words: BLI (Octet), biotinylated CD16b-NA1 on streptavidin sensor, VHH 1.875-60 nM. How it is done:
as §5

Like-named read-outs stand apart in the source and are kept apart here.

T9 sequence (P08637 17-208 limits assumed): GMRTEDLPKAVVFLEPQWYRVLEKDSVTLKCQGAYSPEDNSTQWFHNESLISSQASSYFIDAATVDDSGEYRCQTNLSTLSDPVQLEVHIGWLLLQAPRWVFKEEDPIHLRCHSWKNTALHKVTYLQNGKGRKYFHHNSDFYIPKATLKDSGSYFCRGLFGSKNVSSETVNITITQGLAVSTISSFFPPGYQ
T4 sequence (P02769 25-607 limits assumed): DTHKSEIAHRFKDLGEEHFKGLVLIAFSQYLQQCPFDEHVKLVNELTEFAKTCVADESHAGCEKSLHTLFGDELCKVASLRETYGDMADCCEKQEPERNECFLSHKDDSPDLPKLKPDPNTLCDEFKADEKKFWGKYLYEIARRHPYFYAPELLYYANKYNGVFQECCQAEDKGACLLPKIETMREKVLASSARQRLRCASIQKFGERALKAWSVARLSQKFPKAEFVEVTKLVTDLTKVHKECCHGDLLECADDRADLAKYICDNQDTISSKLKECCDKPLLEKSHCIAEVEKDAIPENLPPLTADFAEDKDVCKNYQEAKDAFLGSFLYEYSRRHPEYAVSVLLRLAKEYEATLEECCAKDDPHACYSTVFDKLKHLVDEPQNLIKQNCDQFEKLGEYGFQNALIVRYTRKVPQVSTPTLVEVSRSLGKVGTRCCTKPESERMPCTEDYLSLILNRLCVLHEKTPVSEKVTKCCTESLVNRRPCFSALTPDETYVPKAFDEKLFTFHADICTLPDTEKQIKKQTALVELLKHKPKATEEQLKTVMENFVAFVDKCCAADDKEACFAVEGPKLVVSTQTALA
T10 sequence (O75015 other isoform, or with tags, fused parts or gaps limits assumed): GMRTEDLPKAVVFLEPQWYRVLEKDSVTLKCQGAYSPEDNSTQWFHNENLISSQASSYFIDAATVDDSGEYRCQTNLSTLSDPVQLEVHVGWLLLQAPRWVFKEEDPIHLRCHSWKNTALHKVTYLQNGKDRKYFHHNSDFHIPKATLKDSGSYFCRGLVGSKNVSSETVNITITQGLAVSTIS
T7 sequence (O75015 17-200): as the sequence (O75015 other isoform, or with tags, fused parts or gaps limits assumed) above, with R20S, D66N, V90I counted along it

B1: A3 (VHH)
VHH: QVQLQESGGGLVQAGGSLRISCAASGRTSDLFPVGWFRQAPGKEREIVAAIRWSGGVIGYGDPVKGRFTISTDNAKNTVYLQMNSLKPEDTAVYYCAAGPRESTVTWNYWGQGTHVTVSS
notes: not the anti-CD16a clone A3; also called A3 anti-HER2 VHH
On to B1, for which the binding result is “binds” in experiment [1]; “no binding (tested: extract, conc. not given)” with HER1; “no binding (tested: extract, conc. not given)” with HER3; “no binding (tested: extract, conc. not given)” with Bovine serum albumin.

B2: E5 anti-HER2 VHH (VHH)
VHH: QVQLQESGGGLVQAGGSLRLDCAASGRTLSSYVVGWFRQAPGKEREVVAAIGWSRTSTFYTDSVKGRFTISRDNTENTVYLQMNSLKPGDTAVYYCAADSSPRRWDRESDFGSWGQGTQVTVSS
notes: also called E5 clone
Molecule B2 gave a Kd in experiment [2] of 0.724 nM. The “FITC+ (%)” value in experiment [3] amounted to 98.4%; in [4], 93.3%. Besides, the “FITC- (%)” value in experiment [3] came to 1.59%; in [4], 6.45%. Besides, the “Mean (MFI)” value in [3] amounted to 102000; in experiment [4], 106000. Also, the binding result in the experiment with HER1 was “no binding (tested: extract, conc. not given)”; with HER3, “no binding (tested: extract, conc. not given)”; in the experiment with Bovine serum albumin it was “no binding (tested: extract, conc. not given)”. Further, the koff in experiment [5] is 0.000702 s⁻¹. For the same molecule, the on-rate (kon) in experiment [5] was found to be 969000 M⁻¹ s⁻¹. Besides, the “EC50 (read off the curve)” value was approximately 1 nM in experiment [6] and approximately 0.3 nM in [7].

B3: A1 anti-HER2 VHH (VHH)
VHH: QVQLQESGGGLVQPGGSLRLSCAASGHTLSTYVVAWFRQAPGKERESVAAIGWSSRSPYYPDSVKGRFTISEDNTKNTVYLQMNSLKPDDTAVYYCAADSYPRRWDRESDFGSWGQGTQVTVSS
notes: Llama VHH expressed in WK6 E. coli with C-terminal c-myc and His tags; also called A1 clone
Regarding B3, the Kd in experiment [2] is 1.3 nM; in experiment [8], 1.32 nM. In addition, the “FITC+ (%)” value was determined as 98.8% in experiment [3] and 94.1% in [4]. For the same molecule, the “FITC- (%)” value in experiment [3] came out at 1.23%; in experiment [4], 5.78%. The “Mean (MFI)” value in experiment [3] turned out to be 97000; in experiment [4], 101000. Besides, the binding result is listed as “no binding (tested: extract, conc. not given)” with HER1; “no binding (tested: extract, conc. not given)” in the experiment with HER3; “no binding (tested: extract, conc. not given)” in the experiment with Bovine serum albumin. This molecule also came in with a koff in experiment [8] of 0.000411 s⁻¹. In addition, the kon in experiment [8] was determined as 309000 M⁻¹ s⁻¹.

B4: C9 (VHH)
VHH: QVQLQESGGGLVQAGGSLRLSCAASGRTVSRYSMGWFRQAPGKEREFVAAIAWFGGWPYYADSVKGRFTISRDNAKNTVYLQMNSLKPEDTAVYYCAARQWARTWDYWGQGTQVTVSS
notes: also called C9 anti-HER2 VHH
With B4, the binding result in [1] was “binds”; in the experiment with HER1, “no binding (tested: extract, conc. not given)”; with HER3 it was “no binding (tested: extract, conc. not given)”; with Bovine serum albumin, “no binding (tested: extract, conc. not given)”.

B5: E3 anti-CD16a VHH (VHH)
VHH: QVQLQESGGGLVQAGGSARLSCAASGRTFRLYRMGWFRQAPGKEREFVASIKMIDGSSLFGDPVKGRFTISRDNTKFMVYLQMNSLKPEDTAVYYCASVSRNTGSWDSWGQGTQVTVSSYPYDVPDYAHHHHHHHH
notes: also called E3 clone; E3 VHH
B5: the binding result in the experiment with CD16b on neutrophils is reported as “no binding”. In addition, the binding result with biotinylated CD32b was “no binding (tested: 100 nM)”. Also, in experiment [9], the Kd was 0.579 nM, the koff is 0.000294 s⁻¹ and the kon was 505000 M⁻¹ s⁻¹. Further, in [10], the Kd came to 31.7 nM, the koff is 0.0131 s⁻¹ and the kon stood at 412000 M⁻¹ s⁻¹.

For orientation: Kd means the free concentration of one partner at which half of the binding sites on the other are occupied at equilibrium, for simple one-to-one binding. A higher Kd goes with lower affinity. By koff is commonly meant a measure of how fast the partners let go of each other. What is called kon is the rate constant with which the complex forms. A lower kon goes with slower complex formation. By EC50 (read off the curve) is commonly meant the concentration at which the effect is half-maximal. High values mean a need for much substance, low ones an effect from little substance.
